These results are taken from patent US10704056B2, “Constitutively active ABA receptor mutants” (The Regents of the University of California, priority 2011, dated 2020).

Experiment [1] has as its system HAB1. Put plainly: In vitro PP2C phosphatase (pNPP) receptor activation assay with HAB1. It counts as biochemical, Arabidopsis. The settings on record: 600 nM GST-HAB1, 0-4800 nM receptor, no ABA. On the procedure:
Recombinant receptor proteins were produced as follows: Coding sequences were cloned into pET28 yielding 6×HIS (SEQ ID NO:173) fusions proteins and transformed into E. coli expression strain BL21. […]. Cells were stored at −80° C. before purification. After thawing, cells were sonicated on ice five times for 30 sec with 30 sec resting intervals. A cleared lysate was obtained after centrifugation at 12,000×g for 10 min and applied to 1 ml of Ni-NTA column (Qiagen) and washed with 20 column volumes of Buffer A containing 30 mM imidazole. Bound protein was eluted with 10 ml of Buffer A with 250 mM imidazole. The elutate was dialyzed against TBS. The purified recombinant proteins were then used together with recombinant phosphatases in receptor assays. In these assays, receptor activity is indicated by inhibition of phosphatase activity, as inferred from initial reaction velocities for GST-HAB1 mediated hydrolysis of the synthetic phosphatase substrate pNPP. Reactions contained 600 nM GST-HAB1 and either 0, 600, 1200, 2400 or 4800 nM 6×His-PYR1 or variants in a reaction buffer consisting of 33 mM Tris-OAc, pH 7.9, 66 mM KOAc, 0.1% BSA, 25 mM Mn(OAc)2, 50 mM pNPP. To infer the level of receptor activation with respect to fully activated wild type receptor, control reactions were also conducted using saturating levels of (+)-ABA (10 μM), and 600 nM wild type PYR1 and HAB1. Immediately after mixing proteins and substrates, reactions were monitored for hydrolysis of pNPP at A405 at ˜10 second intervals over 20 minutes using a Wallac plate reader. Reaction progressions were plotted, initial velocities calculated and converted to specific activities using a standard curve for 4-nitrophenol made in the same buffer system volumes/plate reader used for enzymatic reaction measurements. The values shown are expressed as %-control phosphatase activity levels as measured in the absence of receptor protein. The average specific activity level of GST-HAB1 utilized in our experiments was 4000 μmol/min/mg, when assayed on the phosphatase substrate pNPP in the absence of PYR1 or other receptors, as described using the methods above.
(§1) Full length ABI1 and ABI2 were cloned into a modified pSUMO vector (LifeSensors Inc, USA) vector yielding 6×His-SUMO fusion proteins; GST-HAB1 was expressed and purified as previously described (Park et al., 2009). Mutant receptors were cloned into pET28 yielding 6×His-fusion proteins. […]. The cultures were pre-incubated 2 hours at 30° C. and, for PP2C expression, media was supplemented with 4 mM MnCl2 one hour after inoculation. After pre-incubation, IPTG was added (1 mM) and cells were induced at 15° C. for 16 hours, after which they were collected by centrifugation, resuspended in 5 ml Buffer A (50 mM NaH2PO4, 300 mM NaCl) +10 mM imidazole, pH 8.0 and stored at −80° C. For purification, cells were thawed, sonicated on ice (60 seconds) and a cleared lysate was then applied a 1 ml-bed volume column of Ni-NTA (Qiagen, USA), washed with 20 column volumes of Buffer A+30 mM imidazole and bound protein eluted with 1 ml of Buffer A+250 mM imidazole. For receptors, the elutate was dialyzed against TBS and for PP2Cs, fusion proteins were desalted by passage over a Sephadex G50 column.
The purified receptors and phosphatases were then used in receptor assays where receptor activation is indicated by inhibition of phosphatase activity, as inferred from initial reaction velocities for PP2C-mediated hydrolysis of the synthetic phosphatase substrate pNPP in reactions containing 600 nM PP2C and either 0, 600, 1200, 2400 or 4800 nM receptor. The receptor assay buffer consisted of 33 mM Tris-OAc, pH 7.9, 66 mM KOAc, 0.1% BSA, 25 mM Mn(OAc)2, 0.1%13-ME and 50 mM pNPP. Immediately after mixing proteins and substrates, reactions were monitored for hydrolysis of pNPP at A405 at ˜2 minutes intervals using a Wallac plate reader. […]

Experiment [2] deals with T1, ABI2 (Arabidopsis thaliana, UniProt O04719).
T1 construct: Full length ABI1 and ABI2 were cloned into a modified pSUMO vector; made in house; host or cells: E. coli BL21 (DE3) pLysS
T1 sequence (O04719 1-423): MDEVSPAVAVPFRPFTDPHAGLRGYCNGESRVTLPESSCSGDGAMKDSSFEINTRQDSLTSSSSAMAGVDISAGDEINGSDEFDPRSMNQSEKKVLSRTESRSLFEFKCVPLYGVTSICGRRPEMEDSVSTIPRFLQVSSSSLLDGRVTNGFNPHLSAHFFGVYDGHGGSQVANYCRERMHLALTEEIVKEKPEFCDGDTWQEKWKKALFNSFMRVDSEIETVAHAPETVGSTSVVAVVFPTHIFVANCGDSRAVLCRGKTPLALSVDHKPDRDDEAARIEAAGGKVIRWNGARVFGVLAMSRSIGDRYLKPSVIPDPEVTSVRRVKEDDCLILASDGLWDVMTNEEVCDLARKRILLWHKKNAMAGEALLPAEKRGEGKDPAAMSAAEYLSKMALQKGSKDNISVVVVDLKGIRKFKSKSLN
Put plainly: In vitro PP2C phosphatase (pNPP) receptor activation assay with ABI2. The settings on record: 600 nM PP2C, 0-4800 nM receptor, no ABA. In kind it is biochemical. On the procedure: as §1
The purified receptors and phosphatases were then used in receptor assays where receptor activation is indicated by inhibition of phosphatase activity, as inferred from initial reaction velocities for PP2C-mediated hydrolysis of the synthetic phosphatase substrate pNPP in reactions containing 600 nM PP2C and either 0, 600, 1200, 2400 or 4800 nM receptor. The receptor assay buffer consisted of 33 mM Tris-OAc, pH 7.9, 66 mM KOAc, 0.1% BSA, 25 mM Mn(OAc)2, 0.1%13-ME and 50 mM pNPP. Immediately after mixing proteins and substrates, reactions were monitored for hydrolysis of pNPP at A405 at ˜2 minutes intervals using a Wallac plate reader. Reaction progressions were plotted, initial velocities calculated and converted to specific activities by comparison to a standard curve for 4-nitrophenol made in the same buffer system. PP2C activity values shown in figures are expressed as %-control phosphatase activity levels, as measured under identical reaction conditions in the absence of receptor protein. The average specific activity level of GST-HAB1, 6×His-SUMO-ABI1 and 6×His-SUMO-ABI2 utilized in our experiments was 4500 (GST-PP2C) or 2500 (SUMO-PP2C) μmol/min/mg, when assayed using the phosphatase substrate pNPP in the absence of PYR1 or other receptors.

B1: PYL2^CA3: PYL2 mutant (H65P, V87F, F165V); expressed in plants as 35S-driven GFP fusion (protein)
chain: HHHHHHMSSSPAVKGLTDEEQKTLEPVIKTYHQFEPDPTTCTSLITQRIHAPASVVWPLIRRFDNPERYKPFVKRCRLISGDGDVGSVREVTFISGLPASTSTERLEFVDDDHRVLSFRVVGGEHRLKNYKSVTSVNEFLNQDSGKVYTVVLESYTVDIPEGNTEEDTKMVVDTVVKLNLQKLGVAATSAPMHDDE
Consider B1, for which, in experiment [1], the “basal receptor activity (inhibition of HAB1 phosphatase activity in the absence of ABA)” value is “highly activated in the absence of ABA”. Further, the “constitutive receptor activity on ABI2 in the absence of ABA” value in experiment [2] is recorded as “active towards multiple PP2Cs”.
